The values that follow come from US20100196385A1.

Experiment [1] has as its target DLL4 extracellular domain (R&D systems, catalog #1506-D4/CF) (UniProt Q9NR61). Description: cell-based or functional assay.
The target of experiment [2] is human Dll1 (human) (UniProt O00548). Description: FACS, 0.2 µg/ml, 293T cells with human Dll1 vs mock.
For experiment [3] the target is unchanged. Description: FACS, 5 µg/ml, 293T cells with human Dll1 vs mock. A general note: In flow cytometry, cells or beads pass a laser one at a time.
Experiment [4] has the same target. Briefly: FACS, 0.2 µg/ml, 293T cells with human Dll1.
For experiment [5] the target is unchanged. Description: FACS, 5 µg/ml, 293T cells with human Dll1.
Experiment [6] has the same target. Briefly: FACS, 1 µg/ml, 293T cells with human Dll1.
For experiment [7] the target is unchanged. Description: FACS, 1 µg/ml, 293T cells with human Dll1 vs mock.
Experiment [8] concerns the target human Jagged1 (human) (UniProt P78504). Briefly: FACS, 0.2 µg/ml, 293T cells with human Jagged1 vs mock.
The target is the same in experiment [9]. Description: FACS, 5 µg/ml, 293T cells with human Jagged1.
Experiment [10] shares this target. Description: FACS, 1 µg/ml, 293T cells with human Jagged1.
For experiment [11] the target is unchanged. Description: FACS, 1 µg/ml, 293T cells with human Jagged1 vs mock.
Experiment [12] shares this target. Description: FACS, 5 µg/ml, 293T cells with human Jagged1 vs mock.
For experiment [13] the target is unchanged. Description: FACS, 0.2 µg/ml, 293T cells with human Jagged1.

DLL4 extracellular domain (R&D systems, catalog #1506-D4/CF), sequence (Q9NR61 27-529 limits assumed): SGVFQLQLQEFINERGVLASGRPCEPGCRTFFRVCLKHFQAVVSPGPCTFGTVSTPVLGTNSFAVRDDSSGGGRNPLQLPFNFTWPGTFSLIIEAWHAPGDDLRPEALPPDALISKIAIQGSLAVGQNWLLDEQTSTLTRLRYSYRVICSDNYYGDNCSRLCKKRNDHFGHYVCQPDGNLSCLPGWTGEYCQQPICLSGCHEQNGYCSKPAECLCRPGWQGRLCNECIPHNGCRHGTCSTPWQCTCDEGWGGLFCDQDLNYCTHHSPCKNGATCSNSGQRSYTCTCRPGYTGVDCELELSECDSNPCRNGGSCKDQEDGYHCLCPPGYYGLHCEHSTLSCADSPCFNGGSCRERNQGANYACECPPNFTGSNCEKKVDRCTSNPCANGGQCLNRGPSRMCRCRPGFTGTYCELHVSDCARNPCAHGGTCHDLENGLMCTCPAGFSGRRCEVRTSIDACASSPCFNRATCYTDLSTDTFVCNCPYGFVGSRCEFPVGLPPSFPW
human Jagged1 (human), sequence (P78504 34-1218): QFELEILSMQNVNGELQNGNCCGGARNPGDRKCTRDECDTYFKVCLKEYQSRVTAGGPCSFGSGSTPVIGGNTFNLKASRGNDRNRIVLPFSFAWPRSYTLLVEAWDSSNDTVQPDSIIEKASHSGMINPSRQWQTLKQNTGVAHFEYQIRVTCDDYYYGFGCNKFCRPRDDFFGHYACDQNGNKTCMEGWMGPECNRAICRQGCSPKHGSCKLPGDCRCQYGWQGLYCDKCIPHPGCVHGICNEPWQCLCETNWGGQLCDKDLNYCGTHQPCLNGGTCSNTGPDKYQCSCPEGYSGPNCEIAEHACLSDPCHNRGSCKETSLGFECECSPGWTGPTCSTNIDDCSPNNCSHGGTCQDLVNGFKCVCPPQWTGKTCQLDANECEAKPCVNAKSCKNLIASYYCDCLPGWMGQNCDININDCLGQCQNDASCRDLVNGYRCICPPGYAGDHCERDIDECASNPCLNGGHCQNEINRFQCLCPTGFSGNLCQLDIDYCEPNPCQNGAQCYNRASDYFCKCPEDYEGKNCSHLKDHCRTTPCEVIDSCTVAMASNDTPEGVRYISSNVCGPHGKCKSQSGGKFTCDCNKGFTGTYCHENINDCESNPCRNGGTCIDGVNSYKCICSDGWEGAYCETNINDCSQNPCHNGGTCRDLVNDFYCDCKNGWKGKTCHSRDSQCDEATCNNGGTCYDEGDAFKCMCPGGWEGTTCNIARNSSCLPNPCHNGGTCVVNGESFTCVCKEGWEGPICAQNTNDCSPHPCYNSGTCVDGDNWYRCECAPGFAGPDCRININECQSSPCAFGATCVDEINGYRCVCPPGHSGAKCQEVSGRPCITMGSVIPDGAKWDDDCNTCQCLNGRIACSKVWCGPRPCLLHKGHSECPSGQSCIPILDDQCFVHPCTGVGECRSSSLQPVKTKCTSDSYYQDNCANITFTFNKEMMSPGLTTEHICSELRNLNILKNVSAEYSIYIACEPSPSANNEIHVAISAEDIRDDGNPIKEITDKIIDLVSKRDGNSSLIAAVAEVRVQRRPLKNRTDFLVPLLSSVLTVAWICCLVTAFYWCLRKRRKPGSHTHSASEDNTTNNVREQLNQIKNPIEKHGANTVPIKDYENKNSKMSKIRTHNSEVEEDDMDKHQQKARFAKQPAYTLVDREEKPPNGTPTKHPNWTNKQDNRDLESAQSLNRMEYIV
human Dll1 (human), sequence (O00548 18-723): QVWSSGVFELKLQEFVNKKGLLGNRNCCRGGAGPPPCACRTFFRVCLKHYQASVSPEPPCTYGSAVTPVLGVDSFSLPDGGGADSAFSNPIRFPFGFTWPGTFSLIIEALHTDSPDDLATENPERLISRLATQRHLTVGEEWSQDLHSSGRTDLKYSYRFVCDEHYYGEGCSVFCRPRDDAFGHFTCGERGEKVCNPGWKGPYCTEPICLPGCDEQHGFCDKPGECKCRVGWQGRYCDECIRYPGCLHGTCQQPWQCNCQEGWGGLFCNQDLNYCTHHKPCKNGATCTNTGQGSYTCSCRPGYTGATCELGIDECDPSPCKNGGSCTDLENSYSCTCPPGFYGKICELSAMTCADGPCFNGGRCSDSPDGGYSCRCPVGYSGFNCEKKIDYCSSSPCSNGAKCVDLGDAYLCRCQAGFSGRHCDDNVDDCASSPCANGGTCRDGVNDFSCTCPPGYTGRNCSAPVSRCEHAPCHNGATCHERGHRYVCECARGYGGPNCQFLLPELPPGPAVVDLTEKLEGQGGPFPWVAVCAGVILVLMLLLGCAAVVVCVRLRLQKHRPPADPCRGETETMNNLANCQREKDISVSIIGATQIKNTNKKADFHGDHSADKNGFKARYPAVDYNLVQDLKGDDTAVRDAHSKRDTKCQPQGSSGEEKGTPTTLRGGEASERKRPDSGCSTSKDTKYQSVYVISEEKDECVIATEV

In experiment [1], Control IgG2 (antibody) displayed a % inhibition 1 µg/ml, AVERAGE (HUVEC proliferation on coated DLL4) of 9%; a % inhibition 1 µg/ml, N = 1 (HUVEC proliferation on coated DLL4) of 18%; a % inhibition 1 µg/ml, N = 2 (HUVEC proliferation on coated DLL4) of 0%; a % inhibition 10 µg/ml, AVERAGE (HUVEC proliferation on coated DLL4) of 10%. Moreover, in [1], the % inhibition 10 µg/ml, N = 1 (HUVEC proliferation on coated DLL4) was determined as 11% and the % inhibition 10 µg/ml, N = 2 (HUVEC proliferation on coated DLL4) came to 9%.

In experiment [1], Control IgG4 (antibody) gave a % inhibition 1 µg/ml, AVERAGE (HUVEC proliferation on coated DLL4) of 11%; a % inhibition 1 µg/ml, N = 1 (HUVEC proliferation on coated DLL4) of 14%; a % inhibition 1 µg/ml, N = 2 (HUVEC proliferation on coated DLL4) of 8%; a % inhibition 10 µg/ml, AVERAGE (HUVEC proliferation on coated DLL4) of 2%. In experiment [1], the % inhibition 10 µg/ml, N = 1 (HUVEC proliferation on coated DLL4) is 6% and the % inhibition 10 µg/ml, N = 2 (HUVEC proliferation on coated DLL4) is -3%.

As to “Goat anti-human Dll1 antibody (R&D systems cat #AF1818)”, the Dll1/mock ratio with human Dll1 (human) [2] was 6.94; with human Dll1 (human) [3] it was 7.68; with human Dll1 (human) [7] it was 6.33. Further, the Dll1/293T X Geo mean with human Dll1 (human) [4] was found to be 565; with human Dll1 (human) [5] it was 1840; in the experiment with human Dll1 (human) [6], 1240.

Take “Mouse anti-human Jagged 1 antibody (R&D systems, catalog #mAB1277)”: the Jagged1/mock ratio with human Jagged1 (human) [8] is 3.38; with human Jagged1 (human) [11], 3.94; with human Jagged1 (human) [12], 4.29. Besides, the Jagged1/293T X Geo mean is 196 in the experiment with human Jagged1 (human) [9], 119 with human Jagged1 (human) [10] and 50.7 with human Jagged1 (human) [13].
